Results on 13 molecules are retold here after patent publication US20150064179A1 (BIOTEST, published 2015).

Residue numbers refer to the chain shown, from its start.

Assay [1] concerns the target T1, human interleukin 10 (R&D Systems, Cat. No. 217-IL/CF) (human, UniProt P22301 19-178).
T1 construct: also called hIL-10; human IL-10
The assay can be described thus: antigen ELISA on plate-coated hIL-10 (2 µg/ml), COS-7 supernatants adjusted to the same antibody concentration; one concentration, not given. From the text: In brief, the expression vectors coding for the light chain and for the heavy chain were transiently cotransfected into COS-7 cells by calcium phosphate precipitation in DMEM containing 10% FCS in a 24-well format. After transfection the medium was replaced by the serum free medium CHO-S-SFM II (Invitrogen, Germany) and the supernatants of the COS-7 cells were collected 2-3 days after transfection. The antibody titer of the humanized antibodies secreted into the supernatants of transfected COS-7 cells were analyzed by a sandwich ELISA. Based on the determined antibody concentrations supernatants of all samples were adjusted to the same antibody concentrations, and all samples were used to analyze binding to human IL-10 in an antigen ELISA, whereby Maxisorb plates (Nunc, Germany) were coated with 2 μg/ml hIL-10 in PBS.
A general note: ELISA stands for enzyme-linked immunosorbent assay.

The target of assay [2] is T1, human interleukin 10 (R&D Systems, Cat. …). As to the kind of experiment: SPR Biacore 2000, hIL-10 immobilised on CM-5 chip. The method, then: (§1) Surface plasmon resonance analysis was used to measure the association and dissociation rate constants for binding of the different antibodies (murine, chimeric, 3 humanized variants) towards hIL-10 using BIACORE 2000 (Biacore AB, Uppsala, Sweden). hIL-10 was immobilized on a CM-5 sensor chip according to manufacturers conditions. hIL-10 was immobilized by adding a 50 μl aliquot of 20 μg/ml at a flow rate of 5 μl/minute resulting in an immobilization density of 320RU. The immobilized hIL-10 surface was regenerated in a two step cycle by using 0.1M carbonate buffer pH 9.2 and 0.01M HCL/1M NaCl at flow rates of 50 μl/minute for one minute each. Each antibody sample was analyzed at least 4 times in antibody concentration ranges of 20-0.15 μg/ml. Calculations from the sensograms were performed by using the BIA evaluation version 3 (1999) software.
However, slight differences are detectable. […] Slight differences in association and dissociation rates are also detectable.
For orientation: Surface plasmon resonance follows binding to a sensor surface in real time, without labels.

Assay [3] shares this target. As to the kind of experiment: SPR Biacore T100, BT-063 immobilised by amine coupling, rhIL-10 as analyte, assay no 1.
Assay [4] shares this target. The assay can be described thus: SPR Biacore 2000, hIL-10 immobilised on CM-5 chip, antibody as analyte, n=5. The method, then: as §1
In assay [5] the target is T2, recombinant Cynomolgus IL-10 (Cynomolgus, UniProt P79338 19-178).
T2 construct: also called rCIL-10
T2 sequence (P79338 19-178 limits assumed): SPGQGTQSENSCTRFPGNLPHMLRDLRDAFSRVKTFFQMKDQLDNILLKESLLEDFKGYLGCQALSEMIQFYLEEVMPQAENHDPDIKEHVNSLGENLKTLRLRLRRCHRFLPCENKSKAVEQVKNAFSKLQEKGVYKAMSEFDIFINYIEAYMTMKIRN
The assay can be described thus: SPR Biacore T100, BT-063 immobilised by amine coupling, rCIL-10 as analyte, assay no 1. The method, then: (§2) The affinity of the BT-63 variant 3 (hVH26/hVL7) to Cynomolgus IL-10 was analysed by additional surface plasmon resonance experiments using a Biacore T100 (Biacore AB, Uppsala, Sweden).
(§3) BT-063 was diluted in 10 mM acetate pH5.5 to 5 μg/mL and immobilized using amine coupling procedure to obtain a final level of about 1000 RU. Regeneration of the sensor chip surface was obtained injecting 10 mM Glycine-HCl pH 1.8 for 30 s. Samples were injected in different concentrations over the flow cell as well as over the reference cell. Signals obtained by the reference cell were subtracted from the signals obtained by the detector flow cell and resulting binding profiles were evaluated using a 1:1 Langmuir-binding model.

The target of assay [6] is T2, recombinant Cynomolgus IL-10. The assay can be described thus: SPR Biacore T100, BT-063 immobilised by amine coupling, rCIL-10 as analyte, assay no 3. The method, then: as §2, §3
Assay [7] shares this target. As to the kind of experiment: SPR Biacore T100, BT-063 immobilised by amine coupling, IL-10 as analyte, 1:1 Langmuir model, average. The method, then:
as §2, §3

Assay [8] has the same target. As to the kind of experiment: SPR Biacore T100, BT-063 immobilised by amine coupling, rCIL-10 as analyte, assay no 2. The method, then: as §2, §3
The target in assay [9] is T1, human interleukin 10 (R&D Systems, Cat. …). The assay can be described thus: SPR Biacore 2000, hIL-10 immobilised on CM-5 chip, antibody as analyte, n=4. The method, then: as §1
Assay [10] shares this target. As to the kind of experiment: SPR Biacore 2000, hIL-10 immobilised on CM-5 chip, antibody as analyte, n=6. The method, then:
as §1

T1 sequence (P22301 19-178): as the sequence (P79338 19-178 limits assumed) above, with R14H, H21N, I46L, H83Q, E89A, S129N, V136I counted along it

B1: humanized antibody variant hVH13/hVL8 (antibody, V domains shown)
VH: EVQLVESGGGLVQPGGSLRLSCAASGFTFSTYGVHWVRQAPGKGLEWVSVIWRGGSTDYSAAFMSRFTISRDNSKNTVYFQMNSLRAEDTAVYYCARQAYGHYMDYWGQGTLVTVSS
VL: DVLMTQSPLSLPVTLGQPASISCRSSQNIVHSNGNTYLEWFQQRPGQSPRLLIYKVSNRFSGVPDRFSGSGSGTDFTLKISRVEAEDVGVYYCFQGSHVPWTFGGGTKVEIK
notes: human constant kappa and gamma-1; tested as COS-7 supernatant
Regarding B1, in assay [1], the binding result was “binds”.

B2: humanized antibody variant hVH18/hVL7 (antibody, V domains shown)
VH: B1 VH with T28S, S30A, A40S, V48L, S49G, F67L, R71K, V78L, F80L
VL: B1 VL with L3V, F41Y, Q42L, G105Q
notes: as for B1
Turning to B2, the binding result in assay [1] is “binds”.

B3: BT-063-3 (hVH26/hVL7) (antibody, V domains shown)
VH: EVQLVESGGGLVQPGGSLRLSCAASGFSFATYGVHWVRQSPGKGLEWLGVIWRGGSTDYSAAFMSRLTISKDNSKNTVYLQMNSLRAEDTAVYFCAKQAYGHYMDYWGQGTSVTVSS
VL: B1 VL with L3V, F41Y, Q42L, G105Q
notes: also called BT-63 variant 3; BT-063 (variant hVH26/hVL7)
Consider B3, for which the “factor of reduced affinity compared to the murine B-N10” value in assay [2] was around 3 fold. Also, the Kd – broadly, the constant that tells how readily two partners part at equilibrium – in assay [3] is 4.6 nM; in assay [4], 2.91 nM; in assay [5] it was 0.196 nM; in [6] it was 0.191 nM; in [7], 0.194 nM; in assay [8], 0.195 nM. For the same molecule, the koff (as a rule, the rate constant with which the complex falls apart) is 0.003 s⁻¹ in [3]; 0.00266 s⁻¹ in assay [4]; 0.012 s⁻¹ in assay [5]; 0.018 s⁻¹ in assay [6]; 0.017 s⁻¹ in assay [8]. Also, the kon (commonly the second-order rate constant of association) in assay [3] came to 600000 M⁻¹ s⁻¹; in assay [4], 1.07e+06 M⁻¹ s⁻¹; in assay [5] it was 6.2e+07 M⁻¹ s⁻¹; in assay [6], 9.7e+07 M⁻¹ s⁻¹; in assay [8] it was 8.6e+07 M⁻¹ s⁻¹.

B4: humanized antibody variant hVH28/hVL7 (antibody, V domains shown)
VH: B3 VH with L80F, F94Y, K97R
VL: B1 VL with L3V, F41Y, Q42L, G105Q
notes: as for B1
With B4, the binding result in [1] was “binds”.

B5: humanized antibody variant hVH26/hVL8 (antibody, V domains shown)
VH: B3 VH
VL: B1 VL
notes: as for B1
As to B5, the binding result in assay [1] is recorded as “binds”.

B6: humanized antibody variant hVH28/hVL8 (antibody, V domains shown)
VH: B3 VH with L80F, F94Y, K97R
VL: B1 VL
notes: as for B1
In the case of B6, the binding result in assay [1] is on record as “binds”.

B7: humanized antibody variant hVH13/hVL7 (antibody, V domains shown)
VH: B1 VH
VL: B1 VL with L3V, F41Y, Q42L, G105Q
notes: as for B1
Consider B7, for which, in [1], the binding result is given as “binds”.

B8: humanized antibody variant hVH9/hVL7 (antibody, V domains shown)
VH: B1 VH with V78L, F80L, Y94F, R97K
VL: B1 VL with L3V, F41Y, Q42L, G105Q
notes: as for B1
Regarding B8, in [1], the binding result is “binds”.

B9: BT-063-2 (hVH20/hVL8) (antibody, V domains shown)
VH: B3 VH with L80F
VL: B1 VL
notes: also called BT-063 variant hVH20/hVL8
With B9, the “factor of reduced affinity compared to the murine B-N10” value in [2] is around 3 fold. In assay [9], the affinity, expressed as Kd, was 2.81 nM; the koff was 0.00164 s⁻¹; the association rate constant (kon) turned out to be 1.21e+06 M⁻¹ s⁻¹.

B10: humanized antibody variant hVH1/hVL8 (antibody, V domains shown)
VH: B1 VH with V78L, F80L
VL: B1 VL
notes: as for B1
For the molecule B10, the binding result in [1] is on record as “binds”.

B11: humanized antibody variant hVH1/hVL7 (antibody, V domains shown)
VH: B1 VH with V78L, F80L
VL: B1 VL with L3V, F41Y, Q42L, G105Q
notes: as for B1
Consider B11, for which the binding result in [1] was “binds”.

B12: humanized antibody variant hVH18/hVL8 (antibody, V domains shown)
VH: B3 VH with V78L, F94Y, K97R, S112L
VL: B1 VL
notes: as for B1
Consider B12, for which, in assay [1], the binding result is “binds”.

B13: BT-063-1 (hVH20/hVL7) (antibody, V domains shown)
VH: B3 VH with L80F
VL: B1 VL with L3V, F41Y, Q42L, G105Q
notes: also called BT-063 variant hVH20/hVL7
Take B13: in assay [10], binding was characterised by a dissociation constant (Kd) of 1.22 nM, the koff is 0.00103 s⁻¹ and the kon was determined as 1.21e+06 M⁻¹ s⁻¹.
